A protein production outcome set (Wang et al. 2014)

Test: label from the status in PepcDB records

| Sequence | protein production |
| --- | --- |
| MVTSSSMRRCRGALSLSFWIFLVLRSVLSRPVFGAAAGPAVQSARQCSASRGTGESDPPPFQPTLRLFPPSRRRRSYCRAMTPSRPSPDFPDGGFVQVRGARQHNLKDISVKVPRDALVVFTGVSGSGKSSLAFGTLYAEAQRRYLESVSPYARRLFNQAGVPDVDAIDGLPPAVALQQARGTPTARSSVGSVTTLSNLLRMLYSRAGDYPPGQGIVYAEGFSPNTPEGACPECHGLGRVYTVTEDSMVPDPSLTIRERAVAAWPQAWGGQNQRDILVTLGIDVDVPWRELPEETRHWILFTDEQPVVPVYPGLTPAETQRALKKKMEPSYMGTFSSARRHVLHTFANTESASMKKRVQGYMISEECPLCHGKRLRQEALNVTFAGLDITELSRLPLARVSELLRPYAEEREPGHAERVKNRPEQAIALQRMAADLVKRLDVLLHLGLGYLGLDRSTPTLSPGELQRLRLATQLYSNLFGVVYVLDEPSAGLHPADTEALLSALENLKRGGNSLFVVEHDLDVIRRADWLVDVGPEAGEKGGEILYSGPPEGLKHVPESQTGQYLFADRHTEPHTPREPAGWLELNGVTRNNLDNLDVRFPLGVMTSVTGVSGSGKSTLVSQALVDALAAHFGQPVNPDPEDDEDPADHTAGSARLGGDLAQITRLVRVDQKPIGRTPRSNMATYTGLFDQVRKLFAATPLAKKRGYNAGRFSFNVKGGRCEHCQGEGWVMVELLFLPSVYAPCPVCHGTRYNAETLEVEYRGKNIADVLALTVDEAHDFFADESAIFRALDTLREVGLGYLRLGQPATELSGGEAQRIKLATELQRSGRGGTVYVLDEPTTGLHPADVERLQRQLVKLVDAGNTVIAVEHKMQVVAASDWVLDIGPGAGEDGGRLVAQGTPAEVAQAAGSVTAPYLRAALR | failed |
| MVTSTELTGQTAGVPDAGLVERALAYVREKADGEKPTTLPTGETVLSHAEGMLRILDGLRVDDAARAAACLFPMVAFVPGVEAHIEERFGEDVARLVKGVRQLLRIGAIATQAEAVETSKSQAAARQEQVEALRKMLLAFAQDIRVVLVRLASRLQTLRWLAQTKSQPLPGVARETLDIYAPLANRLGIWQMKWELEDLAFRFEQPETYKRIAKLLDEKRIEREGYISQAIARLQSELAAAGIRAEVTGRPKHIYSIWKKMRGKALDFADLYDVRAFRVIVDDIKDCYTVLGIVHHIWQPIPREFDDYISRPKANGYKSLHTVVIGDDGRAFEVQIRTHEMHHFAEYGVAAHWRYKEAGGKGYSGQFTADNSYDEKIAWLRQLLAWKDDADHTVTHEDSPWEQLKHAAIDDHIYVLTPQARVVALPQGATPVDFAYYLHSDLGHRCRGARVDGAMVPLNTPLKNGQTVEIVAVKQGGPSRDWLNPELGYLASSRARAKVRAWFNALDSQETIAQGRALIEKTLQREGKTAVNLDDLATRLNFKTPDDLFAAVAKEEFSLRHVEQALRHPDGEVQPQFSEEEAVTKKSRATSVARGAKSGVLVVGVDSLMTQMSRCCKPAPPDDIVGFVTRGRGVSIHRRNCHTFQQLSTRDPERVIQTEWGKRSDAVYPVDIQVEAIDRQGLLRDISEVLSREKINVTGVKTLSSKGVARMQFTAEVAEATQLQRAISLIEEVQGVLHAKRK | failed |
| MVTSVSALAVAVVHSVAFAIGRRIGRYNVVDVVWGLGFVAVAVAAATLGHGDPVRRWLLLALVSTWGLRLSWHMYRKTAGQGEDPRYADLLRGATPVQALRKVFGLQGLLTLFVSFPLQLSAVTGPTPKPLLAVGGVGLAVWLVGITFEAVGDWQLWVFKSDPANRGVIMDRGLWAWTRHPNYFGDACVWWGLWLITINDWAPLATVGSPLLMTYLLVDVSGARLTERYLKGRPGFAEYQRRTAYFVPRPPRSARR | failed |
| MVTVVVPAHNEDVVIAQTAKAILDMKYPRDKLEIILFADNCEDNTYQEMQSIKALPQYADRDLTLINRSGTGGKAGVLNDALKIAKGDYICVYDADAMPEKNALYFLVQKVMEDPERHVAAFGRNKTRNANQNFLTRCINQEIVVTQRIQHVGMWHLGKIGRIPGTNFIINTEFVKSIGGWRNGALTEDTDISFKIMQSGKLIALAYNSEAFQQEPETLKSYYLQRKRWAKGNYEVVIANFKHLFGRGNWRVKWEVFYYTCTFFWFNAAIVLSDILFFSNLIALIIGLFKPGVQVPFAFDANNIYMAQLLLFNWFLMILLYLLQISISQATQYGQATVKQIWIALLAYFTYTQLFIIVSISSVASVMMDKILHREGTKWVKTKRFAG | failed |
| MVTYSTFIVIAIYLILTILISWFVNQRSIGNTDFSTGGRQFGWFTAGVSILATYISAMTFIGMPGWVYQSGMEALNIHLNYPIVIFFAVVFFIPVFYRMGFTSIYEYLEHRFGVYARTINSVVFILVQCISSGVILYAIALILIQILPISIVEAIVYITLFTACYTYAGGISTVIWTDMLQSAVLIAGSVAIFVLLLLQVDGVHGVSREQLNIINLQFDLGVDTTLWAGVVAVSFLHMSVYGTNQLIIQRTLATRCEKTAQKSMLLCGYGAFFIYFFFALLGVLLSIFYQERHFTNSNEVILDFVFHHTNPWVIGLIISALAAAAMSTLDSTYNSMATVATFDLYQRFIRRNAPDHHYQAVARKMSLVAAGLVVIPALLAVSNESVLKTIASLTSIFVGIRLGSFVLGLFSNQANEKGVIAGSIISIAAVLGARLMDIAWPWFAPIGTVFFLVSGVVISRYWGDNSIQQQAFIARQKHLFATPTMSQYGLLVFAAVTIAVCAIIPDWLYNALS | failed |
| MVVDSVTMEEEDTKEEAAMVATEGEDTKEEEDDTKEAVGDKEEGEVTAATAAATKVTMAAQGVVHMPEKRFRLSLVTKST | failed |
| MVVIDPTLLGILACPQDKGPLLLVGDELLYNPRLRRAYPIENGIPVLLIDEARDVGADEHETLLARAAGEA | not failed |
| MVVSIITPLYKVEDFIARCADSLFRQSYTEIEYIFVDDCSSDRSVEVLLQVAERYPQLQQQIRILHHESNRGVAAARETGLAAATGEYVYWVDADDWIEPDAIEKMVVRSEQGQKDIIACGWYLCFRQNERRMPMPCYADAETALRGMLSGTMRWNLWLYMIKRDLYLMNDIHFMEGENVGEDMLVLIKLFSHAKSIGFVKDAFYHYVKQNENSLTRLSPEQQMKRQMRNLQAATDYLVTHFIGKYEKEINFFKLNAKMPLLISNDKNSYRTWTACFPEANKYIMANKRQTLRMRLVQLMAAKRQFWLVELYYQLVFKFVYGILYK | failed |
| MVVVCASHIQPAIICRFTWLRFLMEIILIRHGKPTSANNPVLNAVDFTKWVRRYNFSDVSTNSRPDSILDEYKSHYIVSSDLERAIHSASIYTGQSPELTSKLYREMEIPRYKFPLRFKAMTWVYINRAFWMLGLKGSFESYRQAKIRAELASDHLVELAREQDKVILFGHGYLNLHIRRSLIKKGWKLNSKSNGFWGISSLEG | failed |
| MVVVCASHIQPAIICRFTWLRFLMEIILIRHGKPTSANNPVLNAVDFTKWVRRYNFSDVSTNSRPDSILDEYKSHYIVSSDLERAIHSASIYTGQSPELTSKLYREMEIPRYKFPLRFKAMTWVYINRAFWMLGLKGSFESYRQAKIRAELASDHLVELAREQDKVILFGHGYLNLHIRRSLIKKGWKLNSKSNGFWGISSLEGLEHHHHHH | failed |
| MVVYPNEEAENGSLRFVDFVNKTFALLGNSPIKKFSLRHEPRLYCVDAYLRWIFTAMEQERGLLELHLYADRYYYPVGIERELFTSNTLVKLTLSGRYDFQVETVFLPALKSLSLSSSFEIGFDKYCNLLDGFPALEELYIREAVSELSNALLSSGTFVKCASIKRLVVFTDCPKFKEDEDHQEPCFIAPSLVYLDYSSYLSENYDLIDLNSLVEARLNLRLLESFNNYGSSDNDGDVYGWDFNVPFDYYGDVTNLVAGITNITTLHLSPDSLEVFHFRCKSIPVFNNLLLNLSIESNKRNGWQVMPLLIRSCPNLHTLVIKGFVHRVTSKCGDACACIPKKQRKIGKKEEISEYGGSFQELEQMRHFLGKLERLETVKVGVHAENNNNNEFLRANLLTLPRLSSKCNNIQFI | failed |
| MVWAPLGPPRTDCLTLLHTPSKDSPKMSLEWLVAWSWSLDGLRDCIATGIQSVRDCDTTAVITVACLLVLFVWYCYHVGREQPRPYVSVNSLMQAADANGLQNGYVYCQSPECVRCTHNEGLNQKLYHNLQEYAKRYSWSGMGRIHKGIREQGRYLNSRPSIQKPEVFFLPDLPTTPYFSRDAQKHDVEVLERNFQTILCEFETLYKAFSNCSLPQGWKMNSTPSGEWFTFYLVNQGVCVPRNCRKCPRTYRLLGSLRTCIGNNVFGNACISVLSPGTVITEHYGPTNIRIRCHLGLKTPNGCELVVGGEPQCWAEGRCLLFDDSFLHAAFHEGSAEDGPRVVFMVDLWHPNVAAAERQALDFIFAPGR | failed |
| MVWPFKSKFRKQIARIEITGAIASGTRKRVLEALKTVEERKFPALLLRIDSPGGTVGDSQEIYSALKRLREKIKIVASFGNISASGGVYIGMGAEHIMANPGTITGSIGVILRGNNLERLLDKIGVSFKVIKSGPYKDILSFDRELTEPEQDILQELIDTSYQQFVQTVAEGRSLAVDKVKSFADGRIFTGQQALELGVVDRLGTEEEARRWTAELVGLDPEKTPCYTLEERKPLLSRVLPGSRKGYSRLGASIDWLEFEMSTSGLPLWLYRP | failed |
| MVYKPLEASDRTELRALQSDRLQRIVTHAHENVPFYREKLDAAGVSPEDIQSIDDITKLPMTTKEDFRDEYPDGLFAVDDEEVARIHASSGTTGKPKIVSYTDDDLDTWSEVVARSLAASGTEAGDTVQNAYGYGLFTGGLGIHYGTEELGASVVPIGSGQTQRQVELMTDLESDVFTCTPSYALYLAETAEEMGHDPRDLPISTIIFGAEPCTDPMREEIEERLGVDGIDIYGLSEIIGPGVSCECHEAKDGLHIWEDHFYPEVIDPHTKEPVEEGEEGELVLTTLTKEALPVFRYRTGDLTTLNYDECACGRTMVRMDNVTGRTDDLLIVRGVNLYPSEIEHAVLDIDGVAPHYRIDLYKEDNLDILELTIERTAEQGPGDKALEDEIIERLENVLAFTPDELELVAPGSIERTQVGKVKRVYDHRD | not failed |
| MWALLLRFYIALPLSVIVLLVLKTSFPTHKQALHSYFAGSFSLIGSQIFTYAATQYLSSGMIALMFGLAPIMAGLIGRFAFGQHLFKLQWLGMAVAVCGLAIICLNGSNQHVHPFGIVLMLVSVFVYSFSIFWVKKVNAKIQPMAQATGSILVSSILASCLIPFIWQYAPTHLPQAKSLFALIYTVLMASLVAMFCYFKLVQNIKPTTLSLTTVITPMLAMIIGAVLNHEQLSIMVFVGAFIILFGLFLYFYKDIQANRNFAQHIKSK | failed |
| MWDMKFVDRIDEAARLKDALAREKSSLVVMYGRRRLGKSTLIKRVLSENDVYFLADRSEGQHQRALLAKVIAQVFPDFEKLSYPDWESMFRAVNYRTDKRFTLCLDEFPYLVEQSPELPSVLQKLVDEKQLKYNLVLCGSSQNMMYGLFLDSTAPLYGRADEIMRLTPIRLPYIQEALNLNAMNAIEEYAIWGGVPRYWELRENRISLDDAMWHNILSVNGTLYEEPVKLFQDDVKDIVKTSTIMSYIGTGANRLSEIAARCNEPATNLSRPLKKLVDLGFLEKDVPFGIDEKNAKKSLYKIADPFMAFYYQFVVPNRSFIELGRRLPIEQALTAHFSEYVSMQWEKLCRDAVTGNLVNGVVYGKAKRWWGSVLNEDKKPEQVEFDVMAESLDKKYLLVGECKWTTGENGKQLTAELLRKANLLPFAKNYTIVPVLFLKNAPKDDAGNAMLSENVVELMK | failed |
| MWEPACKNRTRTLAGLAPLLASIQSPSPPSVVLRLDPSTRTQALCPHPATARGNPMSRIFITGSTDGLGLAAARTLISQGHDVVLHARSRQRAAAIADTSAAALSLVIGDLASAAETRSIADQVNAFGRMDAVIHNAGIYLERSRGETPEGHAKTLAVNVLAPYLLTAWITRPDRLIYLSSGMHRSGASTLDDIDWKRRPWNASQAYSESKLYIATLAALARHWPDALSNAVDPGWVPTKMGGAGAPDDLEMGHLTQTWLATSDEGAAKVSGGYWYHRQRREAAAEVGDVGFQEALVGRLAELTGVRLFAERG | failed |
